Measured values taken from IntAct's records for PubMed 18423203.

B1: Peripheral plasma membrane protein CASK (Homo sapiens), O14936 (parent)
chain: MADDDVLFEDVYELCEVIGKGPFSVVRRCINRETGQQFAVKIVDVAKFTSSPGLSTEDLKREASICHMLKHPHIVELLETYSSDGMLYMVFEFMDGADLCFEIVKRADAGFVYSEAVASHYMRQILEALRYCHDNNIIHRDVKPHCVLLASKENSAPVKLGGFGVAIQLGESGLVAGGRVGTPHFMAPEVVKREPYGKPVDVWGCGVILFILLSGCLPFYGTKERLFEGIIKGKYKMNPRQWSHISESAKDLVRRMLMLDPAERITVYEALNHPWLKERDRYAYKIHLPETVEQLRKFNARRKLKGAVLAAVSSHKFNSFYGDPPEELPDFSEDPTSSGLLAAERAVSQVLDSLEEIHALTDCSEKDLDFLHSVFQDQHLHTLLDLYDKINTKSSPQIRNPPSDAVQRAKEVLEEISCYPENNDAKELKRILTQPHFMALLQTHDVVAHEVYSDEALRVTPPPTSPYLNGDSPESANGDMDMENVTRVRLVQFQKNTDEPMGITLKMNELNHCIVARIMHGGMIHRQGTLHVGDEIREINGISVANQTVEQLQKMLREMRGSITFKIVPSYRTQSSSCERDSPSTSRQSPANGHSSTNNSVSDLPSTTQPKGRQIYVRAQFEYDPAKDDLIPCKEAGIRFRVGDIIQIISKDDHNWWQGKLENSKNGTAGLIPSPELQEWRVACIAMEKTKQEQQASCTWFGKKKKQYKDKYLAKHNAVFDQLDLVTYEEVVKLPAFKRKTLVLLGAHGVGRRHIKNTLITKHPDRFAYPIPHTTRPPKKDEENGKNYYFVSHDQMMQDISNNEYLEYGSHEDAMYGTKLETIRKIHEQGLIAILDVEPQALKVLRTAEFAPFVVFIAAPTITPGLNEDESLQRLQKESDILQRTYAHYFDLTIINNEIDETIRHLEEAVELVCTAPQWVPVSWVY

Variants of: B1
Settings: with nrx1b_rat Nrxn1, Q63373
nrx1b_rat Nrxn1, Q63373, sequence (Q63373 whole entry): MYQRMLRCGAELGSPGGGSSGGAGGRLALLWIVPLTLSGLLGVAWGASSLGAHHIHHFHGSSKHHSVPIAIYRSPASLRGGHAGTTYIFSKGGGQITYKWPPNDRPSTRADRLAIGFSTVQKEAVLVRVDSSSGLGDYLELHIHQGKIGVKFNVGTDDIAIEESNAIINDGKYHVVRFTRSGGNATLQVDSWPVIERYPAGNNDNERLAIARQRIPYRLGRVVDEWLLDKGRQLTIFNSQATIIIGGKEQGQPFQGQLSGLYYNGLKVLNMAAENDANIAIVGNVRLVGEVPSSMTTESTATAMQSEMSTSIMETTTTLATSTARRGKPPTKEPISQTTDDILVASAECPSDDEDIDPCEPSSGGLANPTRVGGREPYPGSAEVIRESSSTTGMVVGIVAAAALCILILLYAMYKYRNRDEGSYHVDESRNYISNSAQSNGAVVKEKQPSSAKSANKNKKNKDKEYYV

Q: Which “effect of a mutation on the interaction” value does the source give for S24D;V26L here?
A: decreasing interaction
